Assay results from patent US12180473B2, “Chimeric RNA-driven genomic rearrangement in mammalian cells” (priority 2018, dated 2024).
Entries after “also recorded” stand apart in the source; their conditions may differ. Where two headings read alike, the source gives them in different places.

Assays:
BCR-KCNQ2 fusion = test: Nested RT-PCR of induced BCR-KCNQ2 fusion transcript in HL-60 cells; assay type: cell-based, human
Description: FIGS. 41A-41D. RNA-mediated inter-chromosomal BCR-KCNQ2 fusion in HL-60 cells by designed chimeric RNA. FIG. 41A. The design of chimeric RNA is based on the three-way junction that could be formed between genomic DNA (in the stem) and chimeric RNA (perpendicular and below the stem). The three-way junction consists of an RNA/DNA hybrid and a genomic DNA stem (black) between the parental genes (BCR and KCNQ2). The sense genomic strand of BCR gene is on the positive strand of chromosome 22 while that of KCNQ2 is on the negative strand of chromosome 20. Short lines in gray regions represent base pairings. FIG. 41B. […] This chimeric RNA target intron regions and has GC content of 55.4%. The fusion RNA transcribed from the induced fusion gene contains an annotated splice junction. In this case, two different fusion RNAs were confirmed based on the results derived from the Sanger sequencing data. FIG. 41B discloses the BCR targeting sequence as SEQ ID NO: 242, the KCNQ2 targeting sequence as SEQ ID NO: 243, and the chimeric sequence as SEQ ID NO: 244. FIG. 41C. Two BCR-KCNQ2 fusion transcript variants were induced in HL-60 cells by chimeric RNA targeting BCR and KCNQ2 genes in the genome without hormone or other stimuli. FIG. 41D. Schematic of induced BCR-KCNQ2 fusion transcripts derived from the Sanger sequencing data. […]

TMPRSS2-ETV1 fusion = test: RT-PCR detection of induced TMPRSS2-ETV1 fusion transcript in LNCaP cells; assay type: cell-based, human; details: for TMPRSS2-ETV1 fusion, specificity of input RNA: three-round nested PCR (FIG. 4C)
Protocol: • 1st Round: Top down PCR with TMPRSS2 ex-1 F1 and ETV1 ex-6 R1 • Denaturation 94° C., 30 sec • Annealing * , 45 sec • Extension 72° C., 60 sec
The Denaturation, Annealing and Extension steps were performed 2 cycles. • 2 cycles at each temperature: 62° C., 61° C., 60° C. . . .
Long Range PCR for Detecting Genomic DNA Fusion Junction

TMPRSS2-ETV1 fusion gene = test: FISH with 3D image reconstruction, co-localization of TMPRSS2 and ETV1 in enriched LNCaP population; assay type: cell-based, human; details: 30 out of 3301 cells
Protocol: Enriched population carrying TMPRRS2-ETV1 fusion events were first grown on 18 mm round #1 coverglass in a 12-well cell culture plate at the initial density of 200-400 k/well. Cells were then fixed with 4% (vol./vol.) formaldehyde followed by denaturation of DNA with 0.1 N HCl for 5 min and with 70% formamide at 85° C. for 7 min. Hybridization of target DNA with probes were done at 37° C. for 16 hr in a humidified chamber. Cells were then washed, stained with DAPI and imaged with microscope. FISH probes for TMPRSS2 (RP11-35C4, red) and ETV1 (RP11-769K2, green) were purchased from Empire Genomics.

[1] = system: TMPRSS2-ETV1 genomic breakpoints; test: Genomic PCR of TMPRSS2-ETV1 genomic breakpoints in enriched LNCaP population; assay type: cell-based, human; details: enriched vs untransfected LNCaP cells
Protocol: (§1) Nested long-range PCRs according to the manufacturer's protocols using LA PCR kit (Takara, #RR002M). 200 ng of genomic DNA was used in each reaction and PCR was performed with annealing and extension at 68° C. for 20 minutes. 1 μl from the above reaction (1st round PCR) was used as template for the 2nd round PCR.

[2] = RT-PCR detection of input RNA in propagated/enriched LNCaP population; assay type: cell-based, human; details: enriched LNCaP population
Protocol: FIG. 18. Procedure used to propagate and enrich the induced LNCaP population for 52 days in the absence of DHT. LNCaP cells were transfected on day 1 with antisense-5 and incubated for 3 days with DHT. Cells were then divided into sub-populations. Half of the cells from each sub-population were harvested for RT-PCR assays to detect the induced fusion transcript whereas the other half was used to propagate the population. […] The process was continued for 52 days.

TMPRSS2-ERG fusion [3] = test: RT-PCR detection of induced endogenous TMPRSS2-ERG fusion transcript in LNCaP cells expressing input RNA; details: for TMPRSS2-ERG fusion, specificity of input RNA: three-round nested PCR (FIG. 4C); for induction of endogenous TMPRSS2-ERG fusion transcript (RT-PCR): LNCaP cells transfected with input RNA plasmid, DHT for 3 days
Protocol: LNCaP cells were cultured in this special medium for 24 hrs prior to plasmid transfection.
Transfection was performed using Turbofect transfection reagent (Thermo Scientific, #R0531) according to manufacturer's protocol. Briefly, 1 μg of a particular plasmid was first diluted in 100 μl of the serum-free DMEM followed by immediate mixing by pipetting. 4 μl of the transfection reagent was then added to the diluted DNA followed by mixing and incubation for 20 min. The DNA/transfection reagent mixture was then added drop wise to a well containing LNCaP cells in 1 ml medium.
For treating cultured cells, concentrated DHT stock was diluted as 10× working solutions (for example, for 0.9 μM final concentration, 10× is prepared as 9.0 μM) with the appropriate complete culture medium and used immediately. […] Six hrs post transfection, 111 μl of fresh 10× DHT working solutions was added to each well of 12-wells plate containing 1 ml medium and transfected cells.
Briefly, cells were suspended in 200 μl of PBS buffer and were then lysed with 400 μl of lysis buffer. The sample was then passed through the filter assembly resulting in the binding of the nucleic acids to the filter. The filter containing nucleic acids was then incubated with DNase I dissolved in DNase incubation buffer to degrade genomic and plasmid DNAs. The column was then rinsed with wash buffer and total RNA then eluted in a new tube for further analysis.
After the addition of dNTPs, the mixture was denatured at 65° C. for 5 minutes. This was followed by the addition of a master-mix containing 1× superscript buffer, 10 mM DTT, 5 mM Magnesium chloride, RNaseOUT and Superscript III reverse transcriptase. Reactions were carried out at 50° C. for 50 minutes and then terminated by incubation at 85° C. for 5 minutes. cDNA was then treated with RNase-H for 20 minutes at 37° C. to degrade RNA in DNA/RNA hybrid. 1 μl of cDNA was used as template for each subsequent PCR reaction.
The Denaturation, Annealing and Extension steps were performed 32 cycles for induced fusion RNA and 27 cycles for input RNA.

JAZF1-SUZ12 fusion = test: Nested RT-PCR of induced JAZF1-SUZ12 fusion transcript in 293T cells; assay type: cell-based, human
Description: FIGS. 39A-39D. RNA-mediated inter-chromosomal JAZF1-SUZ12 fusion in 293T cells. FIG. 39A. The design of chimeric RNA is based on the three-way junction that could be formed between genomic DNA (in the stem) and chimeric RNA (perpendicular and below the stem). The three-way junction comprises an RNA/DNA hybrid and a genomic DNA stem between the parental genes (JAZF1 and SUZ12). The sense genomic strand of JAZF1 gene is on the negative strand of chromosome 7 while that of SUZ12 is on the positive strand of chromosome 17. Short vertical lines in gray regions between the chromosome and the chimeric RNA represent base pairings. FIG. 39B. […] This chimeric RNA target intron regions and has GC content of 27%. The fusion RNA transcribed from the induced fusion gene contains an annotated splice junction. In this particular case, two different fusion RNAs were confirmed based on the results derived from the Sanger sequencing data. FIG. 39B discloses the JAZF1 targeting sequence as SEQ ID NO: 236, the SUZ12 targeting sequence as SEQ ID NO: 237, and the chimeric sequence as SEQ ID NO: 238. FIG. 39C. Example of inter-chromosomal JAZF1-SUZ12 fusion transcript (arrow) induced by sequence-specific chimeric RNAs in 293T cells without additional hormone or other stimuli. 293T cells were transfected with chimeric RNA expression plasmid. Total RNA was then harvested at day 3. […]

BCR-RANGAP1 fusion = test: Nested RT-PCR of induced BCR-RANGAP1 fusion transcript in 293T cells; assay type: cell-based, human
Description: FIGS. 40A-40C. RNA-mediated intra-chromosomal BCR-RANGAP1 fusion in 293T cells by designed chimeric RNA. FIG. 40A. The design of chimeric RNA is based on the three-way junction that could be formed between genomic DNA (in the stem) and chimeric RNA (perpendicular and below the stem). The three-way junction consists of an RNA/DNA hybrid and a genomic DNA stem between the parental genes (BCR and RANGAP1). The sense genomic strand of BCR gene is on the positive strand of chromosome 22 while that of RANGAP1 is on the negative strand of chromosome 22, separated by 18 Mb. Short lines in gray regions represent base pairings. FIG. 40B. […] This chimeric RNA target intron regions and has GC content of 48.4%. The fusion RNA transcribed from the induced fusion gene contains an annotated splice junction. FIG. 40B discloses the BCR targeting sequence as SEQ ID NO: 239, the RANGAP1 targeting sequence as SEQ ID NO: 240, and the chimeric sequence as SEQ ID NO: 241. FIG. 40C. Intra-chromosomal BCR-RANGAP1 fusion transcript (arrow) induced by sequence-specific chimeric RNA in 293T cells without additional hormone or other stimuli. 293T cells were transfected with chimeric RNA expression plasmid. Total RNA was then harvested at day 3. Nested RT-PCR using specific primer pairs were used to detect the induced fusion transcript. […]

[4] = system: TMPRSS2-ERG genomic breakpoint; assay type: cell-based, human
Protocol: as §1
For the genomic breakpoint identified in this manuscript, 1st round long range PCR was done using primers TMPRSS2 genomic bk-F1 and ERG genomic bk-R1 shown in primer list below. 1 μl from the above reaction (1st round PCR) was used as template for the 2nd round PCR using inner primers TMPRSS2 genomic bk-F2 and ERG genomic bk-R2.

TMPRSS2-ERG fusion [5] = system: TMPRSS2-ERG fusion
[6] = 293T, day 3, without hormone or other stimuli

B1: S4 30-2: chimeric RNA, BCR-KCNQ2, GC content 55.4% (nucleic acid)
chain: GAGATCGAGACCATCCTGGCTAACGCAGTGAAACCCCGTCTCTACATTACCAGCCTTCACTGTTCTGACAGCTCCAGTAGCTGGGGGAGACC
modifications: listed as DNA, further chemistry not given here
- induction of BCR-KCNQ2 fusion (BCR-KCNQ2 fusion; HL-60, nucleofection, day 7): induce BCR-KCNQ2 fusion
- Cell line(s) identified (BCR-KCNQ2 fusion; fusion gene partners BCR-KCNQ2, HL-60): HL-60

B2: Antisense-TMPRSS2-ETV1-A1: input RNA, SEQ ID NO: 34; antisense RNA designed to target stem TMPRSS2-ETV1-A (nucleic acid)
antisense: TGTGCTCGCTTCGGCAGCACATATACTAACATTGGAACGATCCTGCAGTGCCGCATTATGTAAATCGTTCCAAGTTAAAGTCTTAGTTAGATTCAGTAGACTAGGAGCCAGCTTTGGGGACCCCGGGGGACTCTCTTCCACCAACTGG
- TMPRSS2-ETV1 fusion, specificity of input RNA (TMPRSS2-ETV1 fusion; LNCaP): induced TMPRSS2-ETV1 fusion
- induction of TMPRSS2-ETV1 fusion transcript (RT-PCR) (TMPRSS2-ETV1 fusion; LNCaP, two-round nested PCR): clear induction of the TMPRSS2-ETV1 fusion transcript; also recorded: led to induced fusion transcript
- persistence of induced TMPRSS2-ETV1 fusion transcript (TMPRSS2-ETV1 fusion; enriched LNCaP population post initial treatment): ≥ 47 days
- Cell line(s) identified (TMPRSS2-ETV1 fusion; fusion gene partners TMPRSS2-ETV1): LNCaP
- cells positive for TMPRSS2-ETV1 fusion gene by co-localized FISH signals (TMPRSS2-ETV1 fusion gene): Approximately 0.9%
- genomic TMPRSS2-ETV1 fusion bands x, y, z [1]: present only in the induced and enriched LNCaP population
- time after transfection until which transiently expressed input RNA is present (RT-PCR) [2]: < 47 days
- TMPRSS2-ERG fusion, specificity of input RNA (TMPRSS2-ERG fusion [3]; LNCaP): not TMPRSS2-ERG fusion

B3: JS-8: chimeric RNA, JAZF1-SUZ12, GC content 27% (nucleic acid)
chain: TCAACAAAAGAACTATTGATTGATGCCAAACAAGATGAAAATTTCACTTTGCGTATTAGTTACCAAAGGTTTATTTATGTTTCTGTAATGCATATTTATA
modifications: chimeric RNA, chemistry not given here
- induction of JAZF1-SUZ12 fusion (JAZF1-SUZ12 fusion; [6]): induce JAZF1-SUZ12 fusion
- Cell line(s) identified (JAZF1-SUZ12 fusion; fusion gene partners JAZF1-SUZ12): 293T

B4: S1-7: chimeric RNA, BCR-RANGAP1, GC content 48.4% (nucleic acid)
chain: AGAATATGTGTAATTGTGTTACCAGCCTTCACTGTTCTGACAGCTCCAGTAGCTGGGGGAGACC
modifications: chimeric RNA, chemistry not given here
- induction of BCR-RANGAP1 fusion (BCR-RANGAP1 fusion; [6]): induce BCR-RANGAP1 fusion
- Cell line(s) identified (BCR-RANGAP1 fusion; fusion gene partners BCR-RANGAP1): 293T

B5: Antisense-5: input RNA, SEQ ID NO: 8 (nucleic acid)
antisense: TGTGCTCGCTTCGGCAGCACATATACTAACATTGGAACGATCCTGCAGCTTGAGCCATTCACCTGGCTAGGGTTACATTCCATATTGATGGTGACCCTGGCTGGGGGTTGAGACAGCCAATCCGCCGCTCACCTGCCGCGCTCCAGGCGGCGCTCCCCGCCCCTCGCCCTCCGCCAGACAGGAGTGAGAGATGGAAGCTCGCGCCTACTC
- TMPRSS2-ETV1 fusion, specificity of input RNA (TMPRSS2-ETV1 fusion; LNCaP): not TMPRSS2-ETV1 fusion
- genomic TMPRSS2-ERG fusion band (~862 bp, primer pair A/D) [4]: present only in the enriched LNCaP population
- time after transfection until which transiently expressed input RNA is present (RT-PCR) [2]: ≤ 17 days
- Cell line(s) identified (TMPRSS2-ERG fusion [5]): PNT1A
- endogenous ERG mRNA (RT-PCR) (ERG mRNA): not detected
- endogenous ERG mRNA (three-rounds of nested RT-PCR) (ERG mRNA): not detected
- induction of endogenous TMPRSS2-ERG fusion transcript (RT-PCR) (TMPRSS2-ERG fusion [3]): clear induction
- induction of endogenous TMPRSS2-ERG fusion transcript (RT-PCR) (TMPRSS2-ERG fusion [3]; listed as antisense-5): peaked; also recorded: sufficient to induce TMPRSS2-ERG gene fusion
- lowest DHT concentration at which fusion induction occurred (TMPRSS2-ERG fusion [3]; LNCaP, 3 days, three-rounds of nested PCR): 20 nM
- TMPRSS2-ERG fusion, specificity of input RNA (TMPRSS2-ERG fusion [3]; LNCaP): induced TMPRSS2-ERG fusion
- persistence of induced TMPRSS2-ERG fusion transcript (TMPRSS2-ERG fusion [3]; enriched LNCaP population propagated in absence of DHT and input RNA): ≥ 52 days
- Cell line(s) identified (TMPRSS2-ERG fusion [3]; fusion gene partners TMPRSS2-ERG, LNCaP): LNCaP,
- induction of TMPRSS2-ERG fusion after transfection of digested plasmid fragments (TMPRSS2-ERG fusion [3]; plasmid cut SacII/KpnI or SacII/PstI): induced only when the U6 promoter was attached to antisense-5 sequence
